Experimental data published in US11395853B2, “Biomimetic drug delivery of an immunomodulatory agent for the treatment of ocular conditions” (University of Pittsburgh-Of the Commonwealth System of …, priority 2016, dated 2022).

What was measured:
[1] = system: ConA-induced DED mice; test: Corneal permeability, corneal fluorescein staining score, ConA-induced DED (Example 1); format: in vivo, Balb/c mice; details: one week after ConA into lacrimal gland; MPs or soluble CCL22 co-injected with ConA; anti-GITR 500 μg i.p. 5 days prior
Description: (§1) Fabrication of Microparticles—Poly (lactic-co-glycolic) acid (PLGA) microparticles encapsulating recombinant mouse CCL22 (R&D Systems, Minneapolis Minn.) were made according to a previously reported water-oil-water double emulsion technique. Glowacki, A. J. et al. Proc. Natl. Acad. Sci. U.S.A 110, 18525-30 (2013). Briefly, 200 mg of RG502H poly(D,L-lactide-co-glycolide) polymer (Sigma Aldrich, St. Louis, Mo.) was dissolved in 4 ml of dichloromethane and vortexed. Then […], of an aqueous solution containing 5 μg of recombinant mouse CCL22 and 2 mg of BSA (Sigma Aldrich, St. Louis, Mo.) with […] NaCl was pipetted into the mixture of polymer and dichloromethane. […] Release media (supernatant) was sampled periodically and CCL22 concentrations were quantified using an enzyme-linked immunosorbent assay (ELISA) (R&D Systems, Minneapolis, Minn.). […] Measurement of Tear Production—Aqueous tear production was measured with phenol red cotton threads (Oasis Medical, San Dimas, Calif.). Thread was placed in the lateral canthus of the eye for a period of 60 seconds, and wetting was measured in millimeters using a dissecting microscope (Olympus SZX10, Waltham, Mass.). […] The surface of the cornea was evaluated using a dissecting microscope with a fluorescent excitation lamp (Olympus SZX10, Waltham, Mass.). […]

[2] = system: ConA-induced DED mice; test: Aqueous tear production, phenol red cotton thread, ConA-induced DED (Example 1); format: in vivo, Balb/c mice; details: one week after ConA into lacrimal gland; MPs 0.5 mg/20 μl co-injected with ConA; soluble CCL22 2.5 μg in 20 μl; anti-GITR 500 μg i.p. 5 days prior
Description: as §1

B1: Soluble CCL22: recombinant mouse CCL22 chemokine injected in solution with ConA at 2.5 μg in 20 μl (protein, UniProt O88430 25-92, looked up)
C-C motif chemokine 22: GPYGANVEDSICCQDYIRHPLPSRLVKEFFWTSKSCRKPGVVLITVKNRDICADPRQVWVKKLLHKLS
[1]
  corneal fluorescein staining (corneal permeability): central punctate fluorescein staining was observed
[2]
  aqueous tear production: unable to prevent loss of tear production
